Assay results from paper PMC8968458.

Target: p65 (UniProt Q04206)
Assay: pull-down of SFB-tagged RB-N from cells
Conditions: reference: SFB-RB-N wild type; sites S249,T252

Substance: RB N-terminal portion (RB-N) (from UniProt P06400) S249A/T252A
- binding against the reference: weaker
